# In publication PMC314469, “Protein Interaction Networks by Proteome Peptide Scanning” (PLoS Biology, 2004):
# T1: amphyphisin SH3 (AMPH_HUMAN), P49418
# T1 chain: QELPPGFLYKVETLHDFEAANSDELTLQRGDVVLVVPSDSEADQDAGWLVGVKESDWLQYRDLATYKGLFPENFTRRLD
# B1: P42357 562-575 (peptide)
# chain: QGIEFLRPLKTTTP
# B2: O43566 535-548 (peptide)
# chain: QGPAPRRPTTDQIS
# B3: P16066 284-297 (peptide)
# chain: QGPAPRRPWERGDG
# B4: Q9H6J3 73-86 (peptide)
# chain: QGSAPLRPFRSGEG
# B5: O60275 1399-1412 (peptide)
# chain: QHYTLGRPGRAPRR
# B6: Q9BRZ8 226-240 (peptide)
# chain: QILSPPRPPTSPSF
# B7: Q9C0A3 966-979 (peptide)
# chain: ATAFLQRPSRAGSL
# B8: Q9Y403 46-59 (peptide)
# chain: QIRILKRPTSNGVV
# B9: Q9P0Y7 137-150 (peptide)
# chain: QKDVIRRPTFVPQW
# B10: Q96JF9 85-98 (peptide)
# chain: QKFSLRRPLQTAMI
# B11: Q9UII6 5-18 (peptide)
# chain: QKQDLRRPKIHGAV
# B12: Q9H5W5 105-119 (peptide)
# chain: QKTRPIKPPPDSQE
# B13: O43163 368-382 (peptide)
# chain: QLSSPIRPPKYYTY
# B14: Q9BWY5 227-240 (peptide)
# chain: QLFTPNRPKKREIY
# B15: Q9H6Q4 405-418 (peptide)
# chain: QLQAPDRPSRELLQ
# B16: Q9BZE0 329-343 (peptide)
# chain: QLRPPPKPPLPAPD
# B17: Q96NX7 585-598 (peptide)
# chain: QLVILRRPERPMED
# B18: Q9ULC8 29-42 (peptide)
# chain: ATSHFYRPPRSSHS
# B19: Q96S15 319-332 (peptide)
# chain: QLWDIRRPDRSERM
# B20: O75116 1371-1384 (peptide)
# chain: QNQSIRRPSRQLAP
# B21: P15976 237-250 (peptide)
# chain: QNRPLIRPKKRLIV
# B22: Q9Y477 106-119 (peptide)
# chain: QPALLKRPQLELYV
# B23: Q96KZ1 72-86 (peptide)
# chain: QPDGPARPPGMAPS
# B24: Q16772 198-212 (peptide)
# chain: QPGSPRKPPADAKA
# B25: P08263 197-211 (peptide)
# chain: QPGSPRKPPMDEKS
# B26: O43426 1101-1114 (peptide)
# chain: QPLEPKRPPPPRPV
# B27: Q9Y6V0 327-341 (peptide)
# chain: QPLGPAKPPAQQTG
# B28: Q07092 192-205 (peptide)
# chain: QPLGPRRPMRPVGH
# B29: Q9C0B5 150-163 (peptide)
# chain: ATSRFYRPPRSSHS
# B30: Q15215 74-88 (peptide)
# chain: QPQGPPRPPQGDKP
# B31: P04280 312-326 (peptide)
# chain: QPQGPPRPPQGGRP
# B32: Q9H8J7 161-174 (peptide)
# chain: QPQSLRRPLWLSHS
# B33: Q9Y381 268-281 (peptide)
# chain: QPVNPPRPFKHSER
# B34: Q96RY6 139-152 (peptide)
# chain: QQFRLRRPSGITWP
# B35: Q9BZS0 76-90 (peptide)
# chain: QQKPPKRPPIEASV
# B36: Q13873 748-761 (peptide)
# chain: QQNLPKRPTSLPLN
# B37: Q9Y6V0 366-380 (peptide)
# chain: QQPGPAKPPTQQVG
# B38: Q16360 104-117 (peptide)
# chain: QQPLPRRPGHDDGQ
# B39: Q9UPY6 301-315 (peptide)
# chain: QQPPPRRPPQAPEG
# B40: Q9H6H6 405-418 (peptide)
# chain: ATDAPSRPGRLAGR
# B41: O15350 392-405 (peptide)
# chain: QQQLLQRPPRDAQQ
# B42: P33897 430-443 (peptide)
# chain: QRSHFKRPRELEDA
# Key:
# [1] = target: T1, amphyphisin SH3 (AMPH_HUMAN), P49418; test: SPOT array
# [2] = target: endophilin SH3 (SH3G2_HUMAN), Q99962; test: SPOT array
Binder,"normalised SPOT signal, Boehringer light units (BLU); mean over the file's lines of this peptide [1]","normalised SPOT signal, Boehringer light units (BLU); mean over the file's lines of this peptide [2]"
B1,31.9,83.1
B2,36.6,6570
B3,35.7,0
B4,7120,1840
B5,565,73
B6,75.8,4830
B7,15700,298
B8,6.4,148
B9,22.8,91.5
B10,64.3,73.5
B11,56.3,85.7
B12,42.1,36.3
B13,227,2940
B14,165,698
B15,3320,377
B16,825,4110
B17,31.8,16.7
B18,8300,218
B19,2300,692
B20,1460,665
B21,43.3,1510

Binder,"normalised SPOT signal, Boehringer light units (BLU); mean over the file's lines of this peptide [1]","normalised SPOT signal, Boehringer light units (BLU); mean over the file's lines of this peptide [2]"
B22,28.2,52.6
B23,63.5,39.7
B24,36.6,46.1
B25,59.8,68.3
B26,28.6,124
B27,52.7,63.4
B28,10200,2870
B29,5620,400
B30,84.1,94.4
B31,58.6,210
B32,66.8,1380
B33,275,1250
B34,61.5,116
B35,57.3,822
B36,47.8,520
B37,62.4,30.3
B38,36.8,106
B39,744,430
B40,5530,147
B41,3270,106
B42,64.1,29.5
